The text below walks through data of patent US20220229068A1, “DETECTION OF PROTEIN TO PROTEIN INTERACTIONS” (THE GOVERNING COUNCIL OF THE UNIVERSITY OF TORONTO, priority 2019, published 2022).

The test concerns the target T1, FRB/FKBP1A interaction (Homo sapiens, UniProt P42345+P62942).
T1 construct: expressed in transfected cells; host or cells: HEK 293 (also HeLa, PC9)
The class given is cell-based. To be noted: FRB-IN/IC-FKBP1A in HEK 293, Western blot.

T1 sequence (P42345 with tags, fused parts or gaps): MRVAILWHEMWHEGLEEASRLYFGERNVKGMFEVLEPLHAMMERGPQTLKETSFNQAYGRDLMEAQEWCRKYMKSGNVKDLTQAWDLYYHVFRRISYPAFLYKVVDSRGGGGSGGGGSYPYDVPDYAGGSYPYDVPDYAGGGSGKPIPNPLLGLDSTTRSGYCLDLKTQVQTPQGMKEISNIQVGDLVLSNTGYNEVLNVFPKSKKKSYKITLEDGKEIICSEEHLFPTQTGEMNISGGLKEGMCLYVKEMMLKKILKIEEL
T1 sequence (P62942 with tags, fused parts or gaps): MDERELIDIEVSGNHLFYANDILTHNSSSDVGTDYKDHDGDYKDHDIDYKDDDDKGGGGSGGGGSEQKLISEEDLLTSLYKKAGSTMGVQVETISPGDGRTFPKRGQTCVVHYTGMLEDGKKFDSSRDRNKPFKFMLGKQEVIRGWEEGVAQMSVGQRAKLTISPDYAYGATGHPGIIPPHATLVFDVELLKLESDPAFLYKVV
Protocol: Cell culture and treatment. […] These cells were grown in DMEM supplemented with 10% fetal calf serum (Life Technologies). […] For ELISA assay, cells were seeded in 96 well (Sarstedt AG & Co) or 384 well plates (Greiner Bio-One) with 15,000 (96 well) or 5,000 (384 well) cells per well. Cells were transfected with various plasmids with polyethylenimine (PEI) Max (Polysciences) [40]. Expression in HEK 293 Flp-In T-Rex cells was induced by treating the cells with tetracycline (1 μg/ml) for 6-16 hrs. […] Stable cell lines were created according to the manual of Flp-In T-REx (Invitrogen). Briefly, plasmid containing both bait and prey DNA and pOG44 plasmid (1:10 ratio) were cotransfected into HEK 293 Flp-In T-Rex cells.
Western blot analysis and immunoprecipitation. Cells were lysed in buffer H (Triton X 100 1%, β-glycerophosphate pH7.3 50 mM, EGTA 1.5 mM, EDTA 1 mM, orthovanadate 0.1 mM, DTT 1 mM supplemented with protease inhibitors (Roche)). After centrifugation at 21,000×g for 10 min, the supernatants were mixed with Laemmli sample buffer, boiled at 95° C. for 3-5 min and subjected to Western blot analysis. For immunoprecipitations, supernatants (0.3 ml) were incubated with antibodies at 4° C. with rotation for one hour, followed by another hour of incubation with protein G sepharose beads (GE Healthcare). […]

B1: WT form of GP41-1: natural GP41-1 split intein, split at C37 (SEQ ID NO: 1, 2) (protein)
chain 1: CLDLKTQVQTPQGMKEISNIQVGDLVLSNTGYNEVLNVFPKSKKKSYKITLEDGKEIICSEEHLFPTQTGEMNISGGLKEGMCLYVKE
chain 2: MMLKKILKIEELDERELIDIEVSGNHLFYANDILTHN
modifications: Synthetic GP41-1 IN (WT); Synthetic GP41-1 IC (WT)
As to B1, the “self-association / splicing in the absence of rapamycin” value is “relatively high level of FRB/FKBP1A splicing even in the absence of rapamycin treatment”.

B2: C25 split intein: IC aa13-aa37 of WT IC; IN aa1-aa88 of WT IN + aa1-aa12 of WT IC (SEQ ID NO: 3, 4) (protein)
chain 1: CLDLKTQVQTPQGMKEISNIQVGDLVLSNTGYNEVLNVFPKSKKKSYKITLEDGKEIICSEEHLFPTQTGEMNISGGLKEGMCLYVKEMMLKKILKIEEL
chain 2: DERELIDIEVSGNHLFYANDILTHN
modifications: Synthetic GP41-1 IN (C25); Synthetic GP41-1 IC (C25)
As to B2, the “self-association / splicing in the absence of rapamycin” value is recorded as “minimal self-association”.
